Measurements as given in PMC9482650, “Quantitative fragmentomics allow affinity mapping of interactomes” (Nature Communications, 2022).

T1: SHANK1, Q9Y566
T1 sequence (Q9Y566 658-767, limits assumed, looked up): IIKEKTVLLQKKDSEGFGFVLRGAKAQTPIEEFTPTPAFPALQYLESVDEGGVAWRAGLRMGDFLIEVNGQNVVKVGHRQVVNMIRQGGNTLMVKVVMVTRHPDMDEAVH

T2: GRIP1_5, Q9Y3R0
T2 sequence (Q9Y3R0 568-668, limits assumed, looked up): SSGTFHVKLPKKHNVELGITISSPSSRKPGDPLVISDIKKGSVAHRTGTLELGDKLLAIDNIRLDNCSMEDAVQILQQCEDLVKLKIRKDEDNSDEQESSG

T3: DLG3_1, Q92796
T3 sequence (Q92796 125-227, limits assumed, looked up): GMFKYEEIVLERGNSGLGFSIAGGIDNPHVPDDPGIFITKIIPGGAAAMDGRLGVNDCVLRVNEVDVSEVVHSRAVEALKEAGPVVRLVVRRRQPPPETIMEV

T4: PDZD7_3, Q9H5P4
T4 sequence (Q9H5P4 857-944, limits assumed, looked up): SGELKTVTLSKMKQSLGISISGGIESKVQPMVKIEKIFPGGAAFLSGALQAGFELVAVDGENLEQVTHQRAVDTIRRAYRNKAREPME

T5: TJP3_3, O95049
T5 sequence (O95049 375-456, limits assumed, looked up): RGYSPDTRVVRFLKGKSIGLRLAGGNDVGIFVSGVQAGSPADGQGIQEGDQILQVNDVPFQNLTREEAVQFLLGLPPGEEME

T6: APBA2_2, Q99767
T6 sequence (Q99767 654-744, limits assumed, looked up): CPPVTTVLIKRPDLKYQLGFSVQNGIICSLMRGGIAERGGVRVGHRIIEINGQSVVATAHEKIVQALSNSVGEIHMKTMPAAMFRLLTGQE

T7: SYNJ2BP, P57105
T7 sequence (P57105 8-110, limits assumed, looked up): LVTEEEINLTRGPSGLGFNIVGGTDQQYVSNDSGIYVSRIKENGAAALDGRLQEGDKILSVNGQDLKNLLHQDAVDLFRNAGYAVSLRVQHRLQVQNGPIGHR

T8: SNTB1, Q13884
T8 sequence (Q13884 107-205, limits assumed, looked up): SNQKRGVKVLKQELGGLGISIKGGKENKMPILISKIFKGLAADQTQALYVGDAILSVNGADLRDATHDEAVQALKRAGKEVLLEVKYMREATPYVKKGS

T9: SNTA1, Q13424
T9 sequence (Q13424 82-180, limits assumed, looked up): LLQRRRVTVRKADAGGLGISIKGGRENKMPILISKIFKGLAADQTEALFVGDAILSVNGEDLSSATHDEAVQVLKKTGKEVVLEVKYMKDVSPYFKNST

T10: SIPA1L2, Q9P2F8
T10 sequence (Q9P2F8 945-1036, limits assumed, looked up): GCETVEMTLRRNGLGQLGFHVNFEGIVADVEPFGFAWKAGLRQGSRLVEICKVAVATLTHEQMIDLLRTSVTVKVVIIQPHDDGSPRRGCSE

T11: DVL3, Q92997
T11 sequence (Q92997 244-331, limits assumed, looked up): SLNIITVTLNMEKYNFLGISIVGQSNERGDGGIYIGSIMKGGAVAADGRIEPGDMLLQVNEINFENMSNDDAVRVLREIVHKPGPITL

T12: APBA3_1, O96018
T12 sequence (O96018 389-490, limits assumed, looked up): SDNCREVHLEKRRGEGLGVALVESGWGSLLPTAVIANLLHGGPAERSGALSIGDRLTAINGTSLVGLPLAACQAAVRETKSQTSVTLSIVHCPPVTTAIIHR

T13: CARD11, Q9BXL7
T13 sequence (Q9BXL7 662-765, limits assumed, looked up): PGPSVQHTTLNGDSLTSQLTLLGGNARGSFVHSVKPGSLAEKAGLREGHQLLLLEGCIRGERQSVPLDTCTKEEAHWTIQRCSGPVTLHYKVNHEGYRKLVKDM


molecular target: T1, SHANK1, Q9Y566; experiment: holdup assay; design: key: below the threshold = too weak to quantify, mostly under pKd 3.1 to 4; conditions: plain residues with an end cap or a label only (N-terminal biotin on a linker: ado-ado)

| pKd | Binder |
| --- | --- |
| 3.96 | AKPSRISTVV [IQSEC2, Q5JU85] |
| 4.74 | DDPSTAETVL [ABCA7, Q8IZY2] |

molecular target: MAGI2_6, Q86UL8; experiment: holdup assay; design: key: below the threshold = too weak to quantify, mostly under pKd 3.1 to 4; conditions: plain residues with an end cap or a label only (N-terminal biotin on a linker: ado-ado)
Sequence (Q86UL8 1141-1229): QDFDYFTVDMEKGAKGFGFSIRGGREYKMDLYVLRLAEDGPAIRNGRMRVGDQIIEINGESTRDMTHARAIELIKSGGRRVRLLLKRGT

| pKd | Binder |
| --- | --- |
| below the threshold | AKPSRISTVV [IQSEC2, Q5JU85] |
| 3.83 | DDPSTAETVL [ABCA7, Q8IZY2] |

molecular target: T2, GRIP1_5, Q9Y3R0; experiment: holdup assay; design: key: below the threshold = too weak to quantify, mostly under pKd 3.1 to 4; conditions: plain residues with an end cap or a label only (N-terminal biotin on a linker: ado-ado)

| pKd | Binder |
| --- | --- |
| below the threshold | AKPSRISTVV [IQSEC2, Q5JU85] |
| below the threshold | DDPSTAETVL [ABCA7, Q8IZY2] |

molecular target: T3, DLG3_1, Q92796; experiment: holdup assay; design: key: below the threshold = too weak to quantify, mostly under pKd 3.1 to 4; conditions: plain residues with an end cap or a label only (N-terminal biotin on a linker: ado-ado)

| pKd | Binder |
| --- | --- |
| 4.3 | AKPSRISTVV [IQSEC2, Q5JU85] |
| below the threshold | DDPSTAETVL [ABCA7, Q8IZY2] |

molecular target: T4, PDZD7_3, Q9H5P4; experiment: holdup assay; design: key: below the threshold = too weak to quantify, mostly under pKd 3.1 to 4; conditions: plain residues with an end cap or a label only (N-terminal biotin on a linker: ado-ado)

| pKd | Binder |
| --- | --- |
| 5.21 | AKPSRISTVV [IQSEC2, Q5JU85] |
| 4.98 | DDPSTAETVL [ABCA7, Q8IZY2] |

molecular target: T5, TJP3_3, O95049; experiment: holdup assay; design: key: below the threshold = too weak to quantify, mostly under pKd 3.1 to 4; conditions: plain residues with an end cap or a label only (N-terminal biotin on a linker: ado-ado)

| pKd | Binder |
| --- | --- |
| below the threshold | AKPSRISTVV [IQSEC2, Q5JU85] |
| below the threshold | DDPSTAETVL [ABCA7, Q8IZY2] |

molecular target: T6, APBA2_2, Q99767; experiment: holdup assay; design: key: below the threshold = too weak to quantify, mostly under pKd 3.1 to 4; conditions: plain residues with an end cap or a label only (N-terminal biotin on a linker: ado-ado)

| pKd | Binder |
| --- | --- |
| below the threshold | AKPSRISTVV [IQSEC2, Q5JU85] |
| below the threshold | DDPSTAETVL [ABCA7, Q8IZY2] |

molecular target: T7, SYNJ2BP, P57105; experiment: holdup assay; design: key: below the threshold = too weak to quantify, mostly under pKd 3.1 to 4; conditions: plain residues with an end cap or a label only (N-terminal biotin on a linker: ado-ado)

| pKd | Binder |
| --- | --- |
| 4.51 | AKPSRISTVV [IQSEC2, Q5JU85] |
| 4.16 | DDPSTAETVL [ABCA7, Q8IZY2] |

molecular target: T8, SNTB1, Q13884; experiment: holdup assay; design: key: below the threshold = too weak to quantify, mostly under pKd 3.1 to 4; conditions: plain residues with an end cap or a label only (N-terminal biotin on a linker: ado-ado)

| pKd | Binder |
| --- | --- |
| 4.16 | AKPSRISTVV [IQSEC2, Q5JU85] |
| 4.87 | DDPSTAETVL [ABCA7, Q8IZY2] |

molecular target: DLG5_1, Q8TDM6; experiment: holdup assay; design: key: below the threshold = too weak to quantify, mostly under pKd 3.1 to 4; conditions: plain residues with an end cap or a label only (N-terminal biotin on a linker: ado-ado)
Sequence (Q8TDM6 617-713): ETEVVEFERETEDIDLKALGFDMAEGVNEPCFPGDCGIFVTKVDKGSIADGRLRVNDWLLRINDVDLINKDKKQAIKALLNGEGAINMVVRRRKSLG

| pKd | Binder |
| --- | --- |
| below the threshold | AKPSRISTVV [IQSEC2, Q5JU85] |
| below the threshold | DDPSTAETVL [ABCA7, Q8IZY2] |

molecular target: MAGI2_5, Q86UL8; experiment: holdup assay; design: key: below the threshold = too weak to quantify, mostly under pKd 3.1 to 4; conditions: plain residues with an end cap or a label only (N-terminal biotin on a linker: ado-ado)
Sequence (Q86UL8 915-1017): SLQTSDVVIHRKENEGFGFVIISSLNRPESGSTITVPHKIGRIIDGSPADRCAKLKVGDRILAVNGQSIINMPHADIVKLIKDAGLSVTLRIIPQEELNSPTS

| pKd | Binder |
| --- | --- |
| 4.44 | AKPSRISTVV [IQSEC2, Q5JU85] |
| 4.27 | DDPSTAETVL [ABCA7, Q8IZY2] |

molecular target: HTRA1, Q92743; experiment: holdup assay; design: key: below the threshold = too weak to quantify, mostly under pKd 3.1 to 4; conditions: plain residues with an end cap or a label only (N-terminal biotin on a linker: ado-ado)
Sequence (Q92743 360-477): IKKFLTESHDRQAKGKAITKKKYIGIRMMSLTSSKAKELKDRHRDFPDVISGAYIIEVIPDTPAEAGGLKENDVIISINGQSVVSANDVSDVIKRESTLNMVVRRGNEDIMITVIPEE

| pKd | Binder |
| --- | --- |
| 4.5 | AKPSRISTVV [IQSEC2, Q5JU85] |
| 4.64 | DDPSTAETVL [ABCA7, Q8IZY2] |

molecular target: PDLIM1, O00151; experiment: holdup assay; design: key: below the threshold = too weak to quantify, mostly under pKd 3.1 to 4; conditions: plain residues with an end cap or a label only (N-terminal biotin on a linker: ado-ado)
Sequence (O00151 1-87): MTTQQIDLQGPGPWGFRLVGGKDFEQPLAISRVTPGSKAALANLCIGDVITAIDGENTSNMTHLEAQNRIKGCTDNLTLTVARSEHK

| pKd | Binder |
| --- | --- |
| below the threshold | AKPSRISTVV [IQSEC2, Q5JU85] |
| below the threshold | DDPSTAETVL [ABCA7, Q8IZY2] |

molecular target: T9, SNTA1, Q13424; experiment: holdup assay; design: key: below the threshold = too weak to quantify, mostly under pKd 3.1 to 4; conditions: plain residues with an end cap or a label only (N-terminal biotin on a linker: ado-ado)

| pKd | Binder |
| --- | --- |
| 4.12 | AKPSRISTVV [IQSEC2, Q5JU85] |
| 4.71 | DDPSTAETVL [ABCA7, Q8IZY2] |

molecular target: T10, SIPA1L2, Q9P2F8; experiment: holdup assay; design: key: below the threshold = too weak to quantify, mostly under pKd 3.1 to 4; conditions: plain residues with an end cap or a label only (N-terminal biotin on a linker: ado-ado)

| pKd | Binder |
| --- | --- |
| below the threshold | AKPSRISTVV [IQSEC2, Q5JU85] |
| below the threshold | DDPSTAETVL [ABCA7, Q8IZY2] |

molecular target: SCRIB_2, Q14160; experiment: holdup assay; design: key: below the threshold = too weak to quantify, mostly under pKd 3.1 to 4; conditions: plain residues with an end cap or a label only (N-terminal biotin on a linker: ado-ado)
Sequence (Q14160 857-960): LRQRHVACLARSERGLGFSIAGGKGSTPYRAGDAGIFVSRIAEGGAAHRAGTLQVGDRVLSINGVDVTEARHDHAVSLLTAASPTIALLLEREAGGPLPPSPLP

| pKd | Binder |
| --- | --- |
| below the threshold | AKPSRISTVV [IQSEC2, Q5JU85] |
| below the threshold | DDPSTAETVL [ABCA7, Q8IZY2] |

molecular target: MAST1, Q9Y2H9; experiment: holdup assay; design: key: below the threshold = too weak to quantify, mostly under pKd 3.1 to 4; conditions: plain residues with an end cap or a label only (N-terminal biotin on a linker: ado-ado)
Sequence (Q9Y2H9 962-1065): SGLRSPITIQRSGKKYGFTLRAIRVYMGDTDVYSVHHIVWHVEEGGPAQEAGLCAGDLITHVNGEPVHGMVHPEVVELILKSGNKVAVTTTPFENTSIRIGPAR

| pKd | Binder |
| --- | --- |
| 4.28 | AKPSRISTVV [IQSEC2, Q5JU85] |
| 4.88 | DDPSTAETVL [ABCA7, Q8IZY2] |

molecular target: GRIP2_4, Q9C0E4; experiment: holdup assay; design: key: below the threshold = too weak to quantify, mostly under pKd 3.1 to 4; conditions: plain residues with an end cap or a label only (N-terminal biotin on a linker: ado-ado)
Sequence (Q9C0E4 446-548): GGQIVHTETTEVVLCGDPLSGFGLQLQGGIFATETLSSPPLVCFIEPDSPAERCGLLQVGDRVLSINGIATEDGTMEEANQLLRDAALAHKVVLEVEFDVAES

| pKd | Binder |
| --- | --- |
| below the threshold | AKPSRISTVV [IQSEC2, Q5JU85] |
| below the threshold | DDPSTAETVL [ABCA7, Q8IZY2] |

molecular target: T11, DVL3, Q92997; experiment: holdup assay; design: key: below the threshold = too weak to quantify, mostly under pKd 3.1 to 4; conditions: plain residues with an end cap or a label only (N-terminal biotin on a linker: ado-ado)

| pKd | Binder |
| --- | --- |
| below the threshold | AKPSRISTVV [IQSEC2, Q5JU85] |
| below the threshold | DDPSTAETVL [ABCA7, Q8IZY2] |

molecular target: Inadl_4, Q8NI35; experiment: holdup assay; design: key: below the threshold = too weak to quantify, mostly under pKd 3.1 to 4; conditions: plain residues with an end cap or a label only (N-terminal biotin on a linker: ado-ado)
Sequence (Q8NI35 547-651): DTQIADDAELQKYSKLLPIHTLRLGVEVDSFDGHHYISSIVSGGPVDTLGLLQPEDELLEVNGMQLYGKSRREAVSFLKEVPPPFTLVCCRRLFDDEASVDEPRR

| pKd | Binder |
| --- | --- |
| below the threshold | AKPSRISTVV [IQSEC2, Q5JU85] |
| below the threshold | DDPSTAETVL [ABCA7, Q8IZY2] |

molecular target: T12, APBA3_1, O96018; experiment: holdup assay; design: key: below the threshold = too weak to quantify, mostly under pKd 3.1 to 4; conditions: plain residues with an end cap or a label only (N-terminal biotin on a linker: ado-ado)

| pKd | Binder |
| --- | --- |
| below the threshold | AKPSRISTVV [IQSEC2, Q5JU85] |
| below the threshold | DDPSTAETVL [ABCA7, Q8IZY2] |

molecular target: GRID2IP_2, A4D2P6; experiment: holdup assay; design: key: below the threshold = too weak to quantify, mostly under pKd 3.1 to 4; conditions: plain residues with an end cap or a label only (N-terminal biotin on a linker: ado-ado)
Sequence (A4D2P6 272-370): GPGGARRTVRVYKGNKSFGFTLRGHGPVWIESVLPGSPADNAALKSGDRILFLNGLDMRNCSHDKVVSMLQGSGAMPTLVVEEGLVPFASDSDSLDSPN

| pKd | Binder |
| --- | --- |
| 3.77 | AKPSRISTVV [IQSEC2, Q5JU85] |
| below the threshold | DDPSTAETVL [ABCA7, Q8IZY2] |

molecular target: T13, CARD11, Q9BXL7; experiment: holdup assay; design: key: below the threshold = too weak to quantify, mostly under pKd 3.1 to 4; conditions: plain residues with an end cap or a label only (N-terminal biotin on a linker: ado-ado)

| pKd | Binder |
| --- | --- |
| below the threshold | AKPSRISTVV [IQSEC2, Q5JU85] |
| below the threshold | DDPSTAETVL [ABCA7, Q8IZY2] |

molecular target: Inadl_6, Q8NI35; experiment: holdup assay; design: key: below the threshold = too weak to quantify, mostly under pKd 3.1 to 4; conditions: plain residues with an end cap or a label only (N-terminal biotin on a linker: ado-ado)
Sequence (Q8NI35 1058-1167): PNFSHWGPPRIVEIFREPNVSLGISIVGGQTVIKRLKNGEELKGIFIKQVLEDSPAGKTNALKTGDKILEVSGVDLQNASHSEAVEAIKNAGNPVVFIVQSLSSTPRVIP

| pKd | Binder |
| --- | --- |
| below the threshold | AKPSRISTVV [IQSEC2, Q5JU85] |
| 3.98 | DDPSTAETVL [ABCA7, Q8IZY2] |

molecular target: DLG1_1, Q12959; experiment: holdup assay; design: key: below the threshold = too weak to quantify, mostly under pKd 3.1 to 4; conditions: plain residues with an end cap or a label only (N-terminal biotin on a linker: ado-ado)

| pKd | Binder |
| --- | --- |
| 4.81 | AKPSRISTVV [IQSEC2, Q5JU85] |
| below the threshold | DDPSTAETVL [ABCA7, Q8IZY2] |
